Measured values from US20130280758A1 (Regeneron, published 2013).

Molecular target: T1, rat Tie-2 (rTie-2), as used in BIAcore analysis (rat, UniProt A0ABK0L6J5 19-740)
T1 construct: It may have been rTie-2-Fc
Assay: BIAcore

B1: FD1-Fc-FD1 (Fc fusion, human)
chain (part 1 of 2): FRDCADVYQAGFNKSGIYTIYINNMPEPKKVFCNMDVNGGGWTVIQHREDGSLDFQRGWKEYKMGFGNPSGEYWLGNEFIFAITSQRQYMLRIELMDWEGNRAYSQYDRFHIGNEKQNYRLYLKGHTGTAGKQSSLILHGADFSTKDADNDNCMCKCALMLTGGWWFDACGPSNLNGMFYTAGQNHGKLNGIKWHYFKGPSYSLRSTTMMIRPLDF
chain (part 2 of 2): FRDCADVYQAGFNKSGIYTIYINNMPEPKKVFCNMDVNGGGWTVIQHREDGSLDFQRGWKEYKMGFGNPSGEYWLGNEFIFAITSQRQYMLRIELMDWEGNRAYSQYDRFHIGNEKQNYRLYLKGHTGTAGKQSSLILHGADFSTKDADNDNCMCKCALMLTGGWWFDACGPSNLNGMFYTAGQNHGKLNGIKWHYFKGPSYSLRSTTMMIRPLDF
notes: domain: fibrinogen domain of Ang1; also called BA1; not shown: Fc
  Kd: 2 nM
